Experimental data reported in a protein production outcome set (Wang et al. 2014).

Experiment: label from the status in PepcDB records

Sequence | protein production
MADADLVMTGTVLTVDDARPTAEAIAVADGRVIAVGDRSEVAGLVGANTRVIDLGAGCVMPGFVEAHGHPLLEAVVLSDRFVDIRPVTMRDADDVVAAIRGEVARRGPAGAYLVGWDPLLQSGLGEPTLTWLDSLAPNGPLVIIHNSGHKAYFNSHAAWLNGLTRDTADPKGAKYGRDGNGELDGTAEEIGAILPLLAGVADPSNFGAMLRAECARLNRAGLTTCSEMAFDPGYRPMVEAVRAELTVRLCTYEISNARMCTDATPGQGDDMLRQVGIKIWVDGSPWVGNIDLTFPYLDTPATRAIGVPPGSRGCANYTREQLAEIVGAYFPRGWQIACHVHGDGGVDTILDVYEEALRRNPRDDHRLRLEHVGAIRPDQLRRAAELGVTCSIFVDQIHYWGDVIVDDLFGAQRGSRWMPAGSAVAAGMRISLHNDPPVTPEEPLRNISVAATRVAPSGRVLAPEERLTVEQAIRAQTIDAAWQLFAEDAIGSLQVGKYADMVVLSADPRTVPPEQIADLAVRATFLAGRQVYRRLEHHHHHH | failed
MADATRIPDSVTLPELTLRGVLLGALITVIFTASNVFLGLKVGLTFSSAIPAAVISMSVLRMFRDANILENNMVQTQASAAGTLSAIIFILPALVMMGHWQGFPFWQTLAICGAGGMLGVMFTIPLRHIMVVQSDLPYPEGVAAAEILRVGSAEAPDTAPGRRGASGMGDILAGGGVAALVSLATGGLRVLGDSFSWWGQLGASVFRLPMGFSLALLGAGYLIGIVAGVAMLVGLLIAWLVAVPVLTATTPMPDGQSISAFANSLWASQVRFIGAGVIGVGAIWTLATLFMPMVRGVRTSFAAFGRSGEAAYGSAPRTERDLPSRWISLITLALVAVLVGVFAAFLQPAVLSPGARWGLVAYAVVFAFVFGFLVAAACGYMAGLIGSSTSPISGVGIVAIVLVSLLMLAIQRGDGLLATPQGLQMGIALAIFTTSAVVAVASISNDNLQDLKTGWLVGATPWRQQVALLIGCVVGAAVISPVLELLYNAYGFGDALPRPGMDPSQALAAPQATLMLAIAQGIFTHQLNWTMILIGMGVGVALIVIDQVLRRTCRVARLPVLAVGIGIYLPPSASAPIVVGAVLAWLLEGALRRRAAAAGQDYERYAEGPNRRGVLVASGLIVGESLVGVLLAAVIGATGDEAPLAVVGAGFGPTAEWLGFVVFAAVAVWIYRRVVRTRPEQA | failed
MADDDVLFEDVYELCEVIGKGPFSVVRRCINRETGQQFAVKIVDVAKFTSSPGLSTEDLKREASICHMLKHPHIVELLETYSSDGMLYMVFEFMDGADLCFEIVKRADAGFVYSEAVASHYMRQILEALRYCHDNNIIHRDVKPHCVLLASKENSAPVKLGGFGVAIQLGESGLVAGGRVGTPHFMAPEVVKREPYGKPVDVWGCGVILFILLSGCLPFYGTKERLFEGIIKGKYKMNPRQWSHISESAKDLVRRMLMLDPAERITVYEALNHPWLKERDRYAYKIHLPETVEQLRKFNARRKLKGAVLAAVSSHKFNSFYGDPPEELPDFSEDPTSS | failed
MADDQGRGRRRPLNEDDSSTSRGSGDGPRVKVFRGSSSGDPRADPRIEASRERRALEEAPRREGGPTERKPWGDQYDYLNTRPAELVSKKGTDGVPVMLQTNFFRLKTKPEWRIVHYHVEFEPSIENPRVRMGVLSNHANLLGSGYLFDGLQLFTTRKFEQEITVLSGKSKLDIEYKISIKFVGFISCAEPRFLQVLNLI | failed
MADFVAASGQLGFWTYCLLMIGSVFSGMTLIGVAGLAFTTGYANVWERIIGPPFAIAFGTILIGYKLFNLKDKNGILTIQDYLAFRYDDPKIIRILAGLISAVTCFVYLIGQYTAIGVVSYVVLGIPYWLGAVIAAVIVVAYVMSGGMFSTAWTTFLQSILMLLGIYVTVPFIIAWVGGFEAMNQALAAMPEIQNATRGVAENFMFAKYLSKPFAPASVPLAGWVYNLTLFGITVPLGLMVAPHIVNNMLTFRKIEYTRWGPLVMYVIGFSAIFLTALAGMAARVAWAKGMIDIPSLTLGSIEVKWSDMAYPTIASKALPYWLFVLLLPTILAGVMSTTDRLILTAANNISYDVLRNALGKNLSENALKKVNMLVVPLIGFGSLLIALFPQQLLAWFIWAALSLMTNCFFFPIMLGLYWDRMTKNAARLSMIAGFVVTLATFAIYGKTIYIAGIPAYSVLPGFVASFVLAVGVSLLEKG | failed
MADGATAVRRGLSGATRLSARFTADAETGTRQGMQALPTSRRLCASLRSLPERALAMLPAVVLALLPVIAMLLALAPGNARVAEDCALRVEGQARHADDQRIMSTVRALAQALGEVAQATPPDEREAKLIRSISPVRYGEGPWDYVILSRGTVHLYTPGMEGAAGVDFANATDARGVPFVQEMQSRAVLGGGFTEWTARRADGSTETRRVYSLVVPGTEYWLGAWTTPDGATTAKNEARNGVLITADHAAHRAALWGIMAGLPAALVLHRLLTASQRLRQEKDRR | failed
MADGVLAVSQEGFNTLQSYNVGEKYTADLWIQQGGLKSTASVVSFSVDKALLDSMNIADGTSYELLPADCYQLTKSSVDIPANERLLKGELTYDPAKIQELSGYDHLKYVLPLRATSSGMPFVSGRSVLLLGFKVSEPIVTIMNAGVEEINLAEVKELPVQIGVPFTNKWEISCRLESRQSVIDAYNTAHGTYFSMLPSDAYVTPETPILHSGVNQVTATYKLKDDILPGNYMLPVQIAEVTSDATIRADKDVYAAYSIIKEGDKLSKTDWKIVSFTTEEASGEGSNNGHAKHLIDGNIETFWHSRWQGGSDPLPYEIIIDMNHRVKIAQIELLPRGRGSNNPIKVVRFEASEDGTNWESIGQFGFTNQDAALKYYVKSSTARYIKLVIPDGVGNGTVAAIRELDVRGTVVNLEHHHHHH | not failed
MADHSIQGKVALIAGGAKNLGGLIARDLAAHGARAIAIHYNSPASKADADATVAALQAAGAQAVALQGDLTTAAAVEKLYADALAAVGRPDIAINTVGKVLKKPFSEISEAEYDEMAAVNAKSAFFFLKEAGRHVNDHGKIVTLVTSLLGAFTPFYSAYAGTKAPVEHYTRAAAKEFGARGISVTAVGPGPMDTPFFYGQESPEAVAYHQSAAALSPHSPTGLTHIEDVVPFIRHLVSDGWWITGQTLLINGGYTTK | not failed
MADIKRIALLSGGGDCPGLNAVIRAVTKAAINEYGYEVIGYVYGYRGLYNNDYIELTVDKVENIYKEGGTILYSSNKDNLFDYLVDDGHGGKVKKDVSDVGVENLKKAGVDVLVVLGGDGTLTSARDFARKGVNVIGIPKTMDNDLPATDLTYGFISASSVGTEFIDRLNTTAKSHHRVICCELMGRDAGWIALYAGMAGNASCILIPEIPFTIDSIVRHVEKRDKEGYPYTVIAVAEGAKYADGTKVIGKIVEDSPDPIRLGGIASKVADDLEKVIKNHEVRSVNPGHIIRGGDIQAYDRILSIRFGVKAVELIHEGKFGNVVTLKGEEMSYTSLEEVIGDAKFGKQKHVDPNGELVRAAKSIGICFGDD | failed
MADKIKVSLLGSTGMVGQKMVKMLAKHPYLELVKVSASPSKIGKKYKDAVKWIEQGDIPEEVQDLPIVSTNYEDHKDVDVVLSALPNELAESIELELVKNGKIVVSNASPFRMDPDVPLINPEINWEHLELLKFQKERKGWKGILVKNPNCTAAIMSMPIKPLIEIATKSKIIITTLQAVSGAGYNGISFMAIEGNIIPYIKGEEDKIAKELTKLNGKLENNQIIPANLDSTVTSIRVPTRVGHMGVINIVTNERINIEEIKKTLKNFKSLPQQKNLPTAPKQPIIVRDEEDRPQPIIDVNAESGMAVTVGRIRHENNVLRLVVLGDNLVRGAAGITILTVEVMKELGYI | not failed
MADLALLVLTLLWGTTFALVKEALEIASPGVFLTARFGLAAVALLAAWALRPRAPLGDGFWRHGILLGLTMLVGFVLQTVALRHTTPARSGFITGLNVLVVPVVARWFLGRRVRPAFWVGVAFALAGLVMLTRPFTPGAVTEEVRFGDLLTLFCAVAYGLQVTFTSEWAPRHPLAPFVAVQVLVTLAGALVLAPLEGPRFDPAGAGHFALVVAFTGLVMTALAFFVMNWGQRHTTAVRAALIFSLEPAAAAVFSWLYYGEPLGPLDWAGGALMVLGVVAGEVGGVLEARAPRRARGERASTGPG | failed
MADLRLEREFAVAPEALFAWVSDGAKLLQWWGPEGLHVPADQHDLDFTRLGPWFSVMVNGEGQRYKVSGQVTHVKPPQSVGFTWGWHDDDDRRGAESHVMFIVEPCAKGARLILDHRELGDDEMSLRHEEGWTSSLRKLAAELALEHHHHHH | not failed
MADNGQADRKERSNGVIVGTCLAFVAGMIGMAYAAVPLYDMFCRVTGYNGTTQRVEQASDLILDEKIKVTFDANVAAGLPWEFVPVQRDIDVRIGETVQIMYRAKNLASTPTTGQATFNVTPMAAGAYFNKVQCFCFTETTLEPGEEMEMPVVFFVDPEIVKPVETQGIKTLTLSYTFYPREPSKPVAQVKAKAENKL | not failed
MADNTLHSSARANWLERRFALRSRGGTLRTECLAGITGFLAAAYLLVVIPGLLAIGGMDKGAATTGTILVFVVGSLLMAFYANLPFIVGPGIGGSVLVGVTLAGSEGIGWQTGLGIACWSGILFFLLTRFGLREVVTRSVPQSIKLGLTASIGLFVAVLGFRNAGLVLANAKTNALMLGDFLAPGALVALCGLFLAIALQARKVPGAILWAILCATLVGIPFGVTKLPTHFIDAPHSLAPVLGQVDLLGALNIAFLPFLFVFFASEFFSTMGTTLAVGGEAGLLDEEGNMPQINRPFMVDSIAAALGPWLGIPAATALIESSAAAEAGGKTGLTALSAAVMFLLMLLFTPVALMIPKEATAPALILIGLNMFSGLRKVDLANFTDGLPVLMMVMITLIANSFGTGIAGGLLFYIVIKAIAGKWREIPIGLWVLAVPLVYYFATLVRH | failed
MADPKELQDKFWKALKSDRTVMLGLDGVEDGHARPMTAQIEGDSGGPIWFFTSKDNALIAMLGQGRRVIGAFSSKGHDLFASISGSLREDTDPAVVDRLWNPYVAAWYEGGKDDPKLALLRLDADHAQIWLNGSSLLAGIKVLLGV | not failed
MADQLYLENIDEFVTDQNKIVTYKWLSYTLGVHVNQAKQMLYDYVERKRKENSGAQLHVTYLVSGSLIQNGHSCHKVAVVREDKLEAVKSKLAVTASIHVYSIQKAMLKDSGPLFNTDYDILKSNLQNCSKFSAIQC | failed
MADSAELKQMVMSLRVSELQVLLGYAGRNKHGRKHELLTKALHLLKAGCSPAVQMKIKELYRRRF | not failed
MADSKEKLFSDFPAVSTEQWMEKITADLKGADFEKKLVWRTNEGFKVKPFYRQEDLEGLKTTEGLPGEFPYVRGTKKNDNTWFVRQEIKVECPKEANAKALDILNKGVDSLGFYVKKKDLSPEYIETLLNDICAECIELNFSTCQGHTVELAKLLVAYFQKKGYDLTKLQGSVNYDPMGKMMVKGKDLSNFITTAKELVEVLAPLPKFRCICVNAIELNNAGSYISQELGYALAWGNEYLSKLVEAGVPAALAAKKIKFNFGISSNYFLEIAKFRAARMLWADIVKEYHPQCNRQPECPNKAEDGTCLCACKMVAHAETSTFNLTLFDAHVNLLRTQTEAMSAALAGVNSITVTPFDKTYETPDDFSERIARNQQLLLKEECHFNKVVDPAAGSYFIENLTISIATQAWELFLKVEDEGGMLEAVKAGKVQEAINASNKARHDSVSKRKEILLGTNQYPNFNEKAGEKAPVEAKCCCGGNHDSCEKPFATLNFDRAASQFEALRLQTEKSGKRPKAFMLTIGNLAMRQARAQFSCNFLACAGYEVIDNLGFPTVEAGVEAAMKAGADIVVICSSDDEYAEYAIPAFKALDGRAIFIVAGAPACMEELKAAGIENFIHVRVNVLDTLKEYNAKLGIK | failed
MADTGDTAGAKKNGDSTFTVLVAAFANLGIAVAKAVAGVISGSSAMLSEAAHSVADTVTEVLLLTSLKRSVRPADEDHPLGHGPERYIWALLAAVATFVGGAVFSLYDGIHTLTHGEDLGDPLVSYIVLAVAFVLEGYSLRTGLRQVRGEAAHHRVSFGRYLRRTPDTAVKAVVMEDSAALAGLLLAAGGLLGGQLTGSGVWDAVASLCIGALLLYVAWVLGRSNAEFLVGRPLSRSVRDRIRAELVADEHIEAVLELTTLVQGPREALVAAKVDFRDVSTAAQIEWACERAEQRLREEFPIVRRVYLDPTPGFAQRRTEGLNPWP | failed
